Experimental data: US20220411483A1 (Chugai, published 2022)

T1: human FcγRIIa R type extracellular domain with C-terminal His tag (human, UniProt P12318 34-217)
T1 construct: extracellular domain; also called FcgRIIaR
T1 sequence (looked up): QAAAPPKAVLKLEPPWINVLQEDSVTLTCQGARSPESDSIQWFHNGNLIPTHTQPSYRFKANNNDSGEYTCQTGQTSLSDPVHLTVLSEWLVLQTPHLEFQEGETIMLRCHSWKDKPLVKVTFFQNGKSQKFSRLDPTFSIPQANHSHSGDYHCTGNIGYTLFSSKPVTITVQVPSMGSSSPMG

T2: human FcγRIIb extracellular domain with C-terminal His tag (human, UniProt P31994 43-217)
T2 construct: extracellular domain; also called FcgRIIb
T2 sequence (looked up): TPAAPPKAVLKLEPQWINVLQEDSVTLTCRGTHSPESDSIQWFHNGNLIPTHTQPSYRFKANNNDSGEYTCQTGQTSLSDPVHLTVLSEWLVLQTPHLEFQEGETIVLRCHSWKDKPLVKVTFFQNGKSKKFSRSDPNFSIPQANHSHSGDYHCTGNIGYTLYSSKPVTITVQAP

T3: human FcγRIIa H type extracellular domain with C-terminal His tag (human, UniProt P12318 34-217)
T3 construct: extracellular domain; also called FcgRIIaH
T3 sequence (looked up): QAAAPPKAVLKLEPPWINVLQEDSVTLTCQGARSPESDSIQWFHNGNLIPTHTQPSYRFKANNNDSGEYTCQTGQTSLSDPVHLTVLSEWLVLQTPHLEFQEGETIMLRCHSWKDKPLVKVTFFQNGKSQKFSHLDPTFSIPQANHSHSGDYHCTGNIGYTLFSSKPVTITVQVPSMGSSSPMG


What was measured:
[1] = molecular target: T4, human FcγRIa extracellular domain with C-terminal His tag (human, UniProt P12314 16-292); assay: SPR, antibody captured, FcgR analyte
T4 construct: Whole entry named; also called FcgRIa

[2] = molecular target: T1, human FcγRIIa R type extracellular …; assay: SPR, antibody captured, FcgR analyte
[3] = molecular target: T2, human FcγRIIb extracellular domain with …; assay: SPR, antibody captured, FcgR analyte
[4] = molecular target: T4, human FcγRIa extracellular domain with …; assay: SPR, KD of IL6R-G1d/IL6R-L divided by KD of variant
[5] = molecular target: T1, human FcγRIIa R type extracellular …; assay: as above
[6] = molecular target: T3, human FcγRIIa H type extracellular …; assay: as above
[7] = molecular target: T2, human FcγRIIb extracellular domain with …; assay: as above
[8] = molecular target: T5, human FcγRIIIa V type extracellular domain with C-terminal His tag (human, UniProt P08637 17-208); assay: as above
T5 construct: extracellular domain; also called FcgRIIIaV
T5 sequence (P08637 17-208 F176V): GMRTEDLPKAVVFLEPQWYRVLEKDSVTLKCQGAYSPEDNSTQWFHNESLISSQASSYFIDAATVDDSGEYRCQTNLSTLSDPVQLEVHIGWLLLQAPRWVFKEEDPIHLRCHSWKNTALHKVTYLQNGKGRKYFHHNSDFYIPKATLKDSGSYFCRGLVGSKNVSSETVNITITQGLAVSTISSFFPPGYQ

T4 sequence (P12314 16-292): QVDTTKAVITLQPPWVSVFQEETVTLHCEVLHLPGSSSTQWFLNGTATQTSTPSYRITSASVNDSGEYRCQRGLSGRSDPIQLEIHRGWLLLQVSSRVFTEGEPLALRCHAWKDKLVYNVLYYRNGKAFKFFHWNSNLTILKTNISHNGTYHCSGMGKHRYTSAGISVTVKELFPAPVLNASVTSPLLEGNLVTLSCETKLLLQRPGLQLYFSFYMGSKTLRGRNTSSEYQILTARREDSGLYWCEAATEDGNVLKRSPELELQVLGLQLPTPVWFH

| Binder | Kd [1] [nM] | Kd [2] [nM] | Kd [3] [nM] | Relative FcgRIa-binding Activity [4] | Relative FcgRIIaR-binding Activity [5] | Relative FcgRIIaH-binding Activity [6] | Relative FcgRIIb-binding Activity [7] | Relative FcgRIIIaV-binding Activity [8] |
| --- | --- | --- | --- | --- | --- | --- | --- | --- |
| IL6R-P757/IL6R-L (antibody, human IgG1, kappa) heavy: QVQLQESGPGLVKPSETLSLTCAVSGHSISHDHAWSWVRQPPGEGLEWIGFISYSGITNYNPSLQGRVTISRDNSKNTLYLQMNSLRAEDTAVYYCARSLARTTAMDYWGEGTLVTVSSASTKGPSVFPLAPSSKSTSGGTAALGCLVKDYFPEPVTVSWNSGALTSGVHTFPAVLQSSGLYSLSSVVTVPSSSLGTQTYICNVNHKPSNTKVDKKVEPKSCDKTHTCPPCPAPELLGGDSVFLFPPKPKDTLMISRTPEVTCVVIDVAEEDGEVKFNWYVDGVEVHNAKTKPREEQYNSTYRVVSVLTVLHQDWLNGKEYKCKVSNKGLPSSIEKTISKAKGQPREPQVYTLPPSRDELTKNQVSLTCLVKGFYPSDIAVEWESNGQPENNYKTTPPVLDSDGSFFLYSKLTVDKSRWQQGNVFSCSVMHEALHNHYTQKSLSLSP light: not shown | 1.7 | 2300 | 100 | 0.188 | 0.48 | 0.026 | 21 | 0.008 |
| IL6R-P758/IL6R-L (antibody, human IgG1, kappa) heavy: QVQLQESGPGLVKPSETLSLTCAVSGHSISHDHAWSWVRQPPGEGLEWIGFISYSGITNYNPSLQGRVTISRDNSKNTLYLQMNSLRAEDTAVYYCARSLARTTAMDYWGEGTLVTVSSASTKGPSVFPLAPSSKSTSGGTAALGCLVKDYFPEPVTVSWNSGALTSGVHTFPAVLQSSGLYSLSSVVTVPSSSLGTQTYICNVNHKPSNTKVDKKVEPKSCDKTHTCPPCPAPELLGDDSVFLFPPKPKDTLMISRTPEVTCVVVDVSDEDGEVKFNWYVDGVEVHNAKTKPREEQYNSTYRVVSVLTVLHQDWLNGKEYKCKVSNKGLPSSIEKTISKAKGQPREPQVYTLPPSRDELTKNQVSLTCLVKGFYPSDIAVEWESNGQPENNYKTTPPVLDSDGSFFLYSKLTVDKSRWQQGNVFSCSVMHEALHNHYTQKSLSLSP light: not shown | 11 | 1900 | 260 | 0.029 | 0.58 | 0.021 | 8.1 | 0.006 |
| IL6R-P763/IL6R-L (antibody, human IgG1, kappa) heavy: QVQLQESGPGLVKPSETLSLTCAVSGHSISHDHAWSWVRQPPGEGLEWIGFISYSGITNYNPSLQGRVTISRDNSKNTLYLQMNSLRAEDTAVYYCARSLARTTAMDYWGEGTLVTVSSASTKGPSVFPLAPSSKSTSGGTAALGCLVKDYFPEPVTVSWNSGALTSGVHTFPAVLQSSGLYSLSSVVTVPSSSLGTQTYICNVNHKPSNTKVDKKVEPKSCDKTHTCPPCPAPELLGGDSVFLFPPKPKDTLMISRTPEVTCVVVDVAEEDGEVKFNWYVDGVEVHNAKTKPREEQYNSTYRVVSVLTVLHQDWLNGKEYKCKVSNKALPAPIEKTISKAKGQPREPQVYTLPPSRDELTKNQVSLTCLVKGFYPSDIAVEWESNGQPENNYKTTPPVLDSDGSFFLYSKLTVDKSRWQQGNVFSCSVMHEALHNHYTQKSLSLSP light: not shown | 0.73 | 1600 | 100 | 0.438 | 0.69 | 0.034 | 21 | 0.014 |
| IL6R-P759/IL6R-L (antibody, human IgG1, kappa) heavy: QVQLQESGPGLVKPSETLSLTCAVSGHSISHDHAWSWVRQPPGEGLEWIGFISYSGITNYNPSLQGRVTISRDNSKNTLYLQMNSLRAEDTAVYYCARSLARTTAMDYWGEGTLVTVSSASTKGPSVFPLAPSSKSTSGGTAALGCLVKDYFPEPVTVSWNSGALTSGVHTFPAVLQSSGLYSLSSVVTVPSSSLGTQTYICNVNHKPSNTKVDKKVEPKSCDKTHTCPPCPAPDLLGDDSVFLFPPKPKDTLMISRTPEVTCVVVDVSDEDGEVKFNWYVDGVEVHNAKTKPREEQYNSTYRVVSVLTVLHQDWLNGKEYKCKVSNKGLPSSIEKTISKAKGQPREPQVYTLPPSRDELTKNQVSLTCLVKGFYPSDIAVEWESNGQPENNYKTTPPVLDSDGSFFLYSKLTVDKSRWQQGNVFSCSVMHEALHNHYTQKSLSLSP light: not shown | 5.5 | 1400 | 150 | 0.058 | 0.79 | 0.024 | 14 | 0.005 |
| IL6R-P762/IL6R-L (antibody, human IgG1, kappa) heavy: QVQLQESGPGLVKPSETLSLTCAVSGHSISHDHAWSWVRQPPGEGLEWIGFISYSGITNYNPSLQGRVTISRDNSKNTLYLQMNSLRAEDTAVYYCARSLARTTAMDYWGEGTLVTVSSASTKGPSVFPLAPSSKSTSGGTAALGCLVKDYFPEPVTVSWNSGALTSGVHTFPAVLQSSGLYSLSSVVTVPSSSLGTQTYICNVNHKPSNTKVDKKVEPKSCDKTHTCPPCPAPELLGGDSVFLFPPKPKDTLMISRTPEVTCVVVDVSHEDGEVKFNWYVDGVEVHNAKTKPREEQYNSTYRVVSVLTVLHQDWLNGKEYKCKVSNKGLPSSIEKTISKAKGQPREPQVYTLPPSRDELTKNQVSLTCLVKGFYPSDIAVEWESNGQPENNYKTTPPVLDSDGSFFLYSKLTVDKSRWQQGNVFSCSVMHEALHNHYTQKSLSLSP light: not shown | 6.1 | 3400 | 550 | 0.052 | 0.32 | 0.021 | 3.8 | 0.007 |
| IL6R-P761/IL6R-L (antibody, human IgG1, kappa) heavy: QVQLQESGPGLVKPSETLSLTCAVSGHSISHDHAWSWVRQPPGEGLEWIGFISYSGITNYNPSLQGRVTISRDNSKNTLYLQMNSLRAEDTAVYYCARSLARTTAMDYWGEGTLVTVSSASTKGPSVFPLAPSSKSTSGGTAALGCLVKDYFPEPVTVSWNSGALTSGVHTFPAVLQSSGLYSLSSVVTVPSSSLGTQTYICNVNHKPSNTKVDKKVEPKSCDKTHTCPPCPAPDLLGDDSVFLFPPKPKDTLMISRTPEVTCVVVDVSEEDGEVKFNWYVDGVEVHNAKTKPREEQYNSTYRVVSVLTVLHQDWLNGKEYKCKVSNKGLPSSIEKTISKAKGQPREPQVYTLPPSRDELTKNQVSLTCLVKGFYPSDIAVEWESNGQPENNYKTTPPVLDSDGSFFLYSKLTVDKSRWQQGNVFSCSVMHEALHNHYTQKSLSLSP light: not shown | 8 | 1100 | 120 | 0.04 | 1 | 0.036 | 17.5 | 0.008 |
| IL6R-P760/IL6R-L (antibody, human IgG1, kappa) heavy: QVQLQESGPGLVKPSETLSLTCAVSGHSISHDHAWSWVRQPPGEGLEWIGFISYSGITNYNPSLQGRVTISRDNSKNTLYLQMNSLRAEDTAVYYCARSLARTTAMDYWGEGTLVTVSSASTKGPSVFPLAPSSKSTSGGTAALGCLVKDYFPEPVTVSWNSGALTSGVHTFPAVLQSSGLYSLSSVVTVPSSSLGTQTYICNVNHKPSNTKVDKKVEPKSCDKTHTCPPCPAPELLGDDSVFLFPPKPKDTLMISRTPEVTCVVVDVSEEDGEVKFNWYVDGVEVHNAKTKPREEQYNSTYRVVSVLTVLHQDWLNGKEYKCKVSNKGLPSSIEKTISKAKGQPREPQVYTLPPSRDELTKNQVSLTCLVKGFYPSDIAVEWESNGQPENNYKTTPPVLDSDGSFFLYSKLTVDKSRWQQGNVFSCSVMHEALHNHYTQKSLSLSP light: not shown | 15 | 1600 | 190 | 0.021 | 0.69 | 0.027 | 11.1 | 0.008 |
